Reference: US20010049357A1, “Use of Hsp27 as an anti-inflammatory agent” (priority 1999, published 2001)

B1: Hsp25: a murine analogue of Hsp27 (protein, UniProt P14602 1-209, looked up)
Heat shock protein beta-1: MTERRVPFSLLRSPSWEPFRDWYPAHSRLFDQAFGVPRLPDEWSQWFSAAGWPGYVRPLPAATAEGPAAVTLAAPAFSRALNRQLSSGVSEIRQTADRWRVSLDVNHFAPEELTVKTKEGVVEITGKHEERQDEHGYISRCFTRKYTLPPGVDPTLVSSSLSPEGTLTVEAPLPKAVTQSAEITIPVTFEARAQIGGPEAGKSEQSGAK
B2: Hsp 60: Human 60-kDa heat-shock protein, member of the large Hsp family (protein, UniProt P10809 27-573, looked up)
60 kDa heat shock protein, …: AKDVKFGADARALMLQGVDLLADAVAVTMGPKGRTVIIEQSWGSPKVTKDGVTVAKSIDLKDKYKNIGAKLVQDVANNTNEEAGDGTTTATVLARSIAKEGFEKISKGANPVEIRRGVMLAVDAVIAELKKQSKPVTTPEEIAQVATISANGDKEIGNIISDAMKKVGRKGVITVKDGKTLNDELEIIEGMKFDRGYISPYFINTSKGQKCEFQDAYVLLSEKKISSIQSIVPALEIANAHRKPLVIIAEDVDGEALSTLVLNRLKVGLQVVAVKAPGFGDNRKNQLKDMAIATGGAVFGEEGLTLNLEDVQPHDLGKVGEVIVTKDDAMLLKGKGDKAQIEKRIQEIIEQLDVTTSEYEKEKLNERLAKLSDGVAVLKVGGTSDVEVNEKKDRVTDALNATRAAVEEGIVLGGGCALLRCIPALDSLTPANEDQKIGIEIIKRTLKIPAMTIAKNAGVEGSLIVEKIMQSSSEVGYDAMAGDFVNMVEKGIIDPTKVVRTALLDAAGVASLLTTAEVVVTEIPKEEKDPGMGAMGGMGGGMGGGMF

Assays:
[1] = Adverse effect of Hsp 25 in normal rats; type: in vivo; conditions: 10 μg in normal rats (~250 gm body weight)
Procedure: Studies were performed to analyze the adverse effect of Hsp 25 (a murine analogue of Hsp27 ) in rats. […] To examine the effects in an animal model, the cecal ligation and puncture model (CLP) in rats can be used. (Chaudry, et al, 1993, In: Schlag, G. and Redl, H. (Eds), Pathophysiology of shock, Sepsis, and Organ Failure. Springer-Verlag, pp. 1048-1059.) CLP induces sepsis in rats. Hsp25 is administered to the CLP animals and the anti-inflammatory effect of Hsp25 in CLP rats is evaluated. The effectiveness of Hsp25 in simultaneously inducing IL-10 and IL-12 in human monocytes in the rat model, is reasonably predictive of the efficacy of Hsp27 as an anti-inflammatory agent in humans.

[2] = tested on: Mono Mac 6, a human monocyte cell line; conditions: reference 7; cited from earlier work

Row | Molecule | adverse effects [1] | TNFα induced [2]
1 | B1 | did not induce any adverse effects | 
2 | B2 |  | approximately 750 pg/ml
